From article PMC9482650, “Quantitative fragmentomics allow affinity mapping of interactomes” (Nature Communications, 2022)

T1: RHPN1, Q8TCX5
T1 sequence (Q8TCX5 508-602, limits assumed, looked up): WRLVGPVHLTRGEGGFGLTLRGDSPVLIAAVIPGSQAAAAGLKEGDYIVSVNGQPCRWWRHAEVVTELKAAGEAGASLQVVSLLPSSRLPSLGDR

T2: SYNJ2BP, P57105
T2 sequence (P57105 8-110, limits assumed, looked up): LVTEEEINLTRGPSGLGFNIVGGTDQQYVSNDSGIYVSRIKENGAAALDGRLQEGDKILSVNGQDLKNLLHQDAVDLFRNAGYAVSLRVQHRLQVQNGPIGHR

T3: PTPN13_1, Q12923
T3 sequence (Q12923 1088-1188, limits assumed, looked up): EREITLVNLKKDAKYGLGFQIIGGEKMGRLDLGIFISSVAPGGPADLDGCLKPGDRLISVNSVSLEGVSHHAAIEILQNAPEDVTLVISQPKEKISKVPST

T4: GRIP1_4, Q9Y3R0
T4 sequence (Q9Y3R0 467-571, limits assumed, looked up): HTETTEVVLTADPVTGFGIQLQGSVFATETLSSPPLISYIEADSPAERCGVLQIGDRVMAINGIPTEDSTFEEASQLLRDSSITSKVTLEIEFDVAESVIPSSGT

T5: PARD3B_1, Q8TEW8
T5 sequence (Q8TEW8 196-299, limits assumed, looked up): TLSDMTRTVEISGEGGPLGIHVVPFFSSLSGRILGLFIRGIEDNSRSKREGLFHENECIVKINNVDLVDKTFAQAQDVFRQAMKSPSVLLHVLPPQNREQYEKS

T6: DFNB31_1, Q9P202
T6 sequence (Q9P202 135-233, limits assumed, looked up): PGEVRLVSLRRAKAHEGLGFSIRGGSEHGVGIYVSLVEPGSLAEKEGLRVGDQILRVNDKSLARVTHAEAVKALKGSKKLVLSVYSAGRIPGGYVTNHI

T7: GRIP1_2, Q9Y3R0
T7 sequence (Q9Y3R0 145-248, limits assumed, looked up): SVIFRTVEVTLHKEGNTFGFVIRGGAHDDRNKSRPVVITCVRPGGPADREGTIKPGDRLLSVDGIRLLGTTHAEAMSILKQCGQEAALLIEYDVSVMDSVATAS

T8: DLG3_1, Q92796
T8 sequence (Q92796 125-227, limits assumed, looked up): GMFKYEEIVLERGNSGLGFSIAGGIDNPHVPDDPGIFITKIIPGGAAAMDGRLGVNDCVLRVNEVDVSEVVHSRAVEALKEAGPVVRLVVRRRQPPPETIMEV

T9: LIN7B, Q9HAP6
T9 sequence (Q9HAP6 88-185, limits assumed, looked up): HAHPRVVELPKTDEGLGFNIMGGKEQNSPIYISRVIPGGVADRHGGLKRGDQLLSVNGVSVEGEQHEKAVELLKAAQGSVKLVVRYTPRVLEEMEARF

T10: DLG3_2, Q92796
T10 sequence (Q92796 221-321, limits assumed, looked up): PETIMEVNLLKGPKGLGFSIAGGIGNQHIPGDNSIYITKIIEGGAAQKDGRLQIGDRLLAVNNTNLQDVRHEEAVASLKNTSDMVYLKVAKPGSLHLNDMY

T11: MPDZ_10, O75970
T11 sequence (O75970 1624-1722, limits assumed, looked up): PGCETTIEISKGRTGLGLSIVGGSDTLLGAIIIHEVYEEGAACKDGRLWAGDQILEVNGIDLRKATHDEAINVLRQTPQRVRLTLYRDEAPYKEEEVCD

T12: HTRA3, P83110
T12 sequence (P83110 354-453, limits assumed, looked up): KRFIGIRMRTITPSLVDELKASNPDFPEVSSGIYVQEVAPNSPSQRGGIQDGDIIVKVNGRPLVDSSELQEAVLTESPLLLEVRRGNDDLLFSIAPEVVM


These binders were tested against NOS1, P29475 (assay: holdup assay). Conditions: plain residues with an end cap or a label only (N-terminal biotin on a linker: ado-ado).
Parameters: key: below the threshold = too weak to quantify, mostly under pKd 3.1 to 4

Chain of NOS1, P29475 (P29475 9-101): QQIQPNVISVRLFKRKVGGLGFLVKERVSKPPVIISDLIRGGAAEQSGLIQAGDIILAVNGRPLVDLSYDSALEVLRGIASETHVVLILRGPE

Row | Binder | pKd
1 | RKPKPSSSCC [RAB9A, P51151] | below the threshold

These binders were tested against T1, RHPN1, Q8TCX5 (assay: holdup assay). Conditions: plain residues with an end cap or a label only (N-terminal biotin on a linker: ado-ado).
Parameters: key: below the threshold = too weak to quantify, mostly under pKd 3.1 to 4

Row | Binder | pKd
2 | RKPKPSSSCC [RAB9A, P51151] | below the threshold

Each binder was assayed against NHERF4_4, Q86UT5 (assay: holdup assay). Conditions: plain residues with an end cap or a label only (N-terminal biotin on a linker: ado-ado).
Parameters: key: below the threshold = too weak to quantify, mostly under pKd 3.1 to 4

Chain of NHERF4_4, Q86UT5 (Q86UT5 464-550): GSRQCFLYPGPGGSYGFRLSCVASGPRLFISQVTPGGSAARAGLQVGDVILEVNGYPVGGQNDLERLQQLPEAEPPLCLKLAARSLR

Row | Binder | pKd
3 | RKPKPSSSCC [RAB9A, P51151] | below the threshold

These binders were tested against T2, SYNJ2BP, P57105 (assay: holdup assay). Conditions: plain residues with an end cap or a label only (N-terminal biotin on a linker: ado-ado).
Parameters: key: below the threshold = too weak to quantify, mostly under pKd 3.1 to 4

Row | Binder | pKd
4 | RKPKPSSSCC [RAB9A, P51151] | below the threshold

These binders were tested against T3, PTPN13_1, Q12923 (assay: holdup assay). Conditions: plain residues with an end cap or a label only (N-terminal biotin on a linker: ado-ado).
Parameters: key: below the threshold = too weak to quantify, mostly under pKd 3.1 to 4

Row | Binder | pKd
5 | RKPKPSSSCC [RAB9A, P51151] | below the threshold

What follows are binders tested against T4, GRIP1_4, Q9Y3R0 (assay: holdup assay). Conditions: plain residues with an end cap or a label only (N-terminal biotin on a linker: ado-ado).
Parameters: key: below the threshold = too weak to quantify, mostly under pKd 3.1 to 4

Row | Binder | pKd
6 | RKPKPSSSCC [RAB9A, P51151] | below the threshold

The binders below were run against Inadl_10, Q8NI35 (assay: holdup assay). Conditions: plain residues with an end cap or a label only (N-terminal biotin on a linker: ado-ado).
Parameters: key: below the threshold = too weak to quantify, mostly under pKd 3.1 to 4

Chain of Inadl_10, Q8NI35 (Q8NI35 1673-1763): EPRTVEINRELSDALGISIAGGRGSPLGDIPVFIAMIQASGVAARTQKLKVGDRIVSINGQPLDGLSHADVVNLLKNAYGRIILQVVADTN

Row | Binder | pKd
7 | RKPKPSSSCC [RAB9A, P51151] | below the threshold

What follows are binders tested against T5, PARD3B_1, Q8TEW8 (assay: holdup assay). Conditions: plain residues with an end cap or a label only (N-terminal biotin on a linker: ado-ado).
Parameters: key: below the threshold = too weak to quantify, mostly under pKd 3.1 to 4

Row | Binder | pKd
8 | RKPKPSSSCC [RAB9A, P51151] | below the threshold

What follows are binders tested against T6, DFNB31_1, Q9P202 (assay: holdup assay). Conditions: plain residues with an end cap or a label only (N-terminal biotin on a linker: ado-ado).
Parameters: key: below the threshold = too weak to quantify, mostly under pKd 3.1 to 4

Row | Binder | pKd
9 | RKPKPSSSCC [RAB9A, P51151] | below the threshold

These binders were tested against Inadl_9, Q8NI35 (assay: holdup assay). Conditions: plain residues with an end cap or a label only (N-terminal biotin on a linker: ado-ado).
Parameters: key: below the threshold = too weak to quantify, mostly under pKd 3.1 to 4

Chain of Inadl_9, Q8NI35 (Q8NI35 1530-1615): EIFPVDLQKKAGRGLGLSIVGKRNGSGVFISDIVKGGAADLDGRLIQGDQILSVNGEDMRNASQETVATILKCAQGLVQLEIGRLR

Row | Binder | pKd
10 | RKPKPSSSCC [RAB9A, P51151] | below the threshold

These binders were tested against IL16_1, Q14005 (assay: holdup assay). Conditions: plain residues with an end cap or a label only (N-terminal biotin on a linker: ado-ado).
Parameters: key: below the threshold = too weak to quantify, mostly under pKd 3.1 to 4

Chain of IL16_1, Q14005 (Q14005 210-306): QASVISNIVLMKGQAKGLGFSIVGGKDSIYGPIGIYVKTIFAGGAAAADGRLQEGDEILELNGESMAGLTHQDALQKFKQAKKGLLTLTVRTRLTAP

Row | Binder | pKd
11 | RKPKPSSSCC [RAB9A, P51151] | below the threshold

The binders below were run against T7, GRIP1_2, Q9Y3R0 (assay: holdup assay). Conditions: plain residues with an end cap or a label only (N-terminal biotin on a linker: ado-ado).
Parameters: key: below the threshold = too weak to quantify, mostly under pKd 3.1 to 4

Row | Binder | pKd
12 | RKPKPSSSCC [RAB9A, P51151] | below the threshold

These binders were tested against TJP2_1, Q9UDY2 (assay: holdup assay). Conditions: plain residues with an end cap or a label only (N-terminal biotin on a linker: ado-ado).
Parameters: key: below the threshold = too weak to quantify, mostly under pKd 3.1 to 4

Chain of TJP2_1, Q9UDY2 (Q9UDY2 24-128): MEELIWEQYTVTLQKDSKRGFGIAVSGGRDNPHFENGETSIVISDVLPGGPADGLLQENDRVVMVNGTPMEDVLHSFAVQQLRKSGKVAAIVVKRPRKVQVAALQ

Row | Binder | pKd
13 | RKPKPSSSCC [RAB9A, P51151] | below the threshold

What follows are binders tested against T8, DLG3_1, Q92796 (assay: holdup assay). Conditions: plain residues with an end cap or a label only (N-terminal biotin on a linker: ado-ado).
Parameters: key: below the threshold = too weak to quantify, mostly under pKd 3.1 to 4

Row | Binder | pKd
14 | RKPKPSSSCC [RAB9A, P51151] | below the threshold

These binders were tested against T9, LIN7B, Q9HAP6 (assay: holdup assay). Conditions: plain residues with an end cap or a label only (N-terminal biotin on a linker: ado-ado).
Parameters: key: below the threshold = too weak to quantify, mostly under pKd 3.1 to 4

Row | Binder | pKd
15 | RKPKPSSSCC [RAB9A, P51151] | 3.75

These binders were tested against HTRA1, Q92743 (assay: holdup assay). Conditions: plain residues with an end cap or a label only (N-terminal biotin on a linker: ado-ado).
Parameters: key: below the threshold = too weak to quantify, mostly under pKd 3.1 to 4

Chain of HTRA1, Q92743 (Q92743 360-477): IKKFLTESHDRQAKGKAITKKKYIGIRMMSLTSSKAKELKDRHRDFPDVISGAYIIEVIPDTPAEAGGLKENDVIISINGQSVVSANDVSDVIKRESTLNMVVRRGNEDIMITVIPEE

Row | Binder | pKd
16 | RKPKPSSSCC [RAB9A, P51151] | below the threshold

The binders below were run against Inadl_5, Q8NI35 (assay: holdup assay). Conditions: plain residues with an end cap or a label only (N-terminal biotin on a linker: ado-ado).
Parameters: key: below the threshold = too weak to quantify, mostly under pKd 3.1 to 4

Chain of Inadl_5, Q8NI35 (Q8NI35 673-780): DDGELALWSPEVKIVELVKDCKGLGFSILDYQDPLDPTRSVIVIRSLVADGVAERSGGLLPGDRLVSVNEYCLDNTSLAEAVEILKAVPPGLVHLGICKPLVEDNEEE

Row | Binder | pKd
17 | RKPKPSSSCC [RAB9A, P51151] | below the threshold

What follows are binders tested against T10, DLG3_2, Q92796 (assay: holdup assay). Conditions: plain residues with an end cap or a label only (N-terminal biotin on a linker: ado-ado).
Parameters: key: below the threshold = too weak to quantify, mostly under pKd 3.1 to 4

Row | Binder | pKd
18 | RKPKPSSSCC [RAB9A, P51151] | 4.1

Each binder was assayed against T11, MPDZ_10, O75970 (assay: holdup assay). Conditions: plain residues with an end cap or a label only (N-terminal biotin on a linker: ado-ado).
Parameters: key: below the threshold = too weak to quantify, mostly under pKd 3.1 to 4

Row | Binder | pKd
19 | RKPKPSSSCC [RAB9A, P51151] | below the threshold

These binders were tested against DLG1_3, Q12959 (assay: holdup assay). Conditions: plain residues with an end cap or a label only (N-terminal biotin on a linker: ado-ado).
Parameters: key: below the threshold = too weak to quantify, mostly under pKd 3.1 to 4

Chain of DLG1_3, Q12959 (Q12959 457-571): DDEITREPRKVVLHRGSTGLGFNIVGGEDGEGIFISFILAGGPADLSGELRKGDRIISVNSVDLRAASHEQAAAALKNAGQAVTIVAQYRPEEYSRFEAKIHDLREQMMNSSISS

Row | Binder | pKd
20 | RKPKPSSSCC [RAB9A, P51151] | below the threshold

The binders below were run against GORASP2, Q9H8Y8 (assay: holdup assay). Conditions: plain residues with an end cap or a label only (N-terminal biotin on a linker: ado-ado).
Parameters: key: below the threshold = too weak to quantify, mostly under pKd 3.1 to 4

Row | Binder | pKd
21 | RKPKPSSSCC [RAB9A, P51151] | below the threshold

What follows are binders tested against LAP2, Q96RT1 (assay: holdup assay). Conditions: plain residues with an end cap or a label only (N-terminal biotin on a linker: ado-ado).
Parameters: key: below the threshold = too weak to quantify, mostly under pKd 3.1 to 4

Chain of LAP2, Q96RT1 (Q96RT1 other isoform, or with tags, fused parts or gaps): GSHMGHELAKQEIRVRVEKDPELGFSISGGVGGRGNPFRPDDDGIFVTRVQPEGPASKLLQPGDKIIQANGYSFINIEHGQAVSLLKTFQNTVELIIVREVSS

Row | Binder | pKd
22 | RKPKPSSSCC [RAB9A, P51151] | below the threshold

These binders were tested against T12, HTRA3, P83110 (assay: holdup assay). Conditions: plain residues with an end cap or a label only (N-terminal biotin on a linker: ado-ado).
Parameters: key: below the threshold = too weak to quantify, mostly under pKd 3.1 to 4

Row | Binder | pKd
23 | RKPKPSSSCC [RAB9A, P51151] | 4.6

Each binder was assayed against TJP1_3, Q07157 (assay: holdup assay). Conditions: plain residues with an end cap or a label only (N-terminal biotin on a linker: ado-ado).
Parameters: key: below the threshold = too weak to quantify, mostly under pKd 3.1 to 4

Chain of TJP1_3, Q07157 (Q07157 416-512): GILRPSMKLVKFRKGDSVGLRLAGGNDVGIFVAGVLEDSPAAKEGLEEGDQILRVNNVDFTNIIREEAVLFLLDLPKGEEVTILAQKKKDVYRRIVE

Row | Binder | pKd
24 | RKPKPSSSCC [RAB9A, P51151] | below the threshold

Each binder was assayed against DLG4_1, P78352 (assay: holdup assay). Conditions: plain residues with an end cap or a label only (N-terminal biotin on a linker: ado-ado).
Parameters: key: below the threshold = too weak to quantify, mostly under pKd 3.1 to 4

Chain of DLG4_1, P78352 (P78352 62-152): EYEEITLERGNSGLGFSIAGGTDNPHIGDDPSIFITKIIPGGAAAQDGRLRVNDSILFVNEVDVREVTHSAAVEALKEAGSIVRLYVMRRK

Row | Binder | pKd
25 | RKPKPSSSCC [RAB9A, P51151] | below the threshold
